B1: full-length human P2X7 receptor (receptor)
chain: MPACCSCSDVFQYETNKVTRIQSMNYGTIKWFFHVIIFSYVCFALVSDKLYQRKEPVISSVHTKVKGIAEVKEEIVENGVKKLVHSVFDTADYTFPLQGNSFFVMTNFLKTEGQEQRLCPEYPTRRTLCSSDRGCKKGWMDPQSKGIQTGRCVVHEGNQKTCEVSAWCPIEAVEEAPRPALLNSAENFTVLIKNNIDFPGHNYTTRNILPGLNITCTFHKTQNPQCPIFRLGDIFRETGDNFSDVAIQGGIMGIEIYWDCNLDRWFHHCHPKYSFRRLDDKTTNVSLYPGYNFRYAKYYKENNVEKRTLIKVFGIRFDILVFGTGGKFDIIQLVVYIGSTLSYFGLAAVFIDFLIDTYSSNCCRSHIYPWCKCCQPCVVNEYYYRKKCESIVEPKPTLKYVSFVDESHIRMVNQQLLGRSLQDVKGQEVPRPAMDFTDLSRLPLALHDTPPIPGQPEEIQLLRKEATPRSRDSPVWCQCGSCLPSQLPESHRCLEELCCRKKPGACITTSELFRKLVLSRHVLQFLLLYQEPLLALDVDSTNSRLRHCAYRCYATWRFGSQDMADFAILPSCCRWRIRKEFPKSEGQYSGFKSPY
notes: Expressed from cDNA in HEK-293 cells or endogenous in human cells and tissues (CaSki, HeLa, cervical tissue); Mostly assayed in cell extracts on immunoblots, where it runs as 65, 75 and 85 kDa forms; also called P2X7-RFL; P2X7-WT
B2: truncated P2X7-j receptor protein (receptor)
chain: MPACCSCSDVFQYETNKVTRIQSMNYGTIKWFFHVIIFSYVCFALVSDKLYQRKEPVISSVHTKVKGIAEVKEEIVENGVKKLVHSVFDTADYTFPLQGNSFFVMTNFLKTEGQEQRLCPEYPTRRTLCSSDRGCKKGWMDPQSKGIQTGRCVVHEGNQKTCEVSAWCPIEAVEEAPRPALLNSAENFTVLIKNNIDFPGHNYTTRNILPGLNITCTFHKTQNPQCPIFRLGDIFRETGDNFSDVAIQIRQVLQGKQC
notes: Untagged P2X7-j, expressed in HEK-293 cells or endogenous in human cancer cell lines; Runs as 42-45 kDa bands; also called P2X7-RTR

Columns and labels:
Test in all cases: densitometry of oligomer bands on an immunoblot, HEK293 cells co-expressing P2X7 and P2X7-j
[1] = biological target: B2
[2] = biological target: the molecule itself
[3] = biological target: B1

| relative band density (ratio) [1] [ratio parts] | relative band density (ratio) [3] [ratio parts] | Binder | relative band density (ratio) [2] [ratio parts] |
| --- | --- | --- | --- |
| 5 | – | B1 | 10 |
| – | 15 | B2 | 70 |

From patent publication US20070020706A1 (UNIVERSITY HOSPITALS OF CLEVELAND, published 2007)
